Reference: the nanobody polyreactivity screen of Harvey et al. (2022)

Test: yeast display, Sf9 membrane polyspecificity reagent, FACS + sequencing; frameworks hold sequencing errors
How it was run: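 Galactose induction of a Saccharomyces cerevisiae BJ5465 synthetic nanobody display library ran 36–48 hours. The cells were then stained for 1 hour at 4 °C with 10% biotinylated, detergent-solubilized Sf9 membrane reagent, pulled down on streptavidin microbeads and FACS-sorted into low and high (top ~1%) gates on expression and reagent-binding fluorescence. Labels for polyreactivity follow the gate of origin.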

| Sequence | polyreactivity (PSR sort gate) |
| --- | --- |
| QVQLVESGGGLVQAGGSLRLSCAASGRTLLPNALGWYRQAPGKERELVASIRDGGDTNYADSVKGRFTISRDNAKKTVYLQMNSLQPEDTGVYYCNADWWAYYSFGHEYWGLGTQVTVSS | low polyreactivity |
| QVQLVESGGGLVQAGGSLRLSCAASGFTFYHNAMGWYRHAPGKERELVATITARGGRTYYADSVKGRFTISRDNAKNTVYLQMISLKPEDTAVYYCNVKASRGYTYEYDYWGQGTQVTVSS | high polyreactivity |
| QVQLVESGGGLVQAGGSLRLICAASGSIFDWNAMGWYRQAPGKERELVATISWDGGSTYYADSVKGRFTISRDNAKNTVYLQMNSLKPEDTAVYYCATVFTGKPAYYARTKYDYWGQGTQVNVSS | low polyreactivity |
| QLQLVESGGGLVQAGGSLRLSCAASGSILTINAMGWYSQAPGKERELVAAITGNGGSTDYADSVKVRFTISRDNAKNTVYLQMNSQKPEDTAVYYCAARVRGTGVYGGYNYWGQGTQVTVSS | high polyreactivity |
| QVQLEESGRGLVQAGGSLRLSCAASGNTLGYNAMGWYRQAPGKVRELVATFRGSGGITYYADSVKGRFTISRDNALNTVYLQMNSLKPEDTAVYYCANVYKSRVKGDHWGQGTQVTVSS | low polyreactivity |
| QVQLVESAGGLVQAGGSLRLSCDASGRTFPYNAMGWYRQAHGKERELVAGITGGGSTYYADSVKGRFTISRDNAKNNVYLQMNSLKPEDTAVYYCAADRYFLYATYPDVEFNYWGQGTQVTVSS | high polyreactivity |
| QVQLVESGGGLVQAGGSLRISCAASGRTFFHYAMGWYRQAPGKERELVAGITSGGRTKYADSVKGRFTISRDNAKKTVYLQKNSMKPEDTAVYVCAASYIVWLTRGSPRKLFDYWGQGSQVTVSS | high polyreactivity |
| QVQLVESGGGLVQAGGSLRLSCAASGRIFNRYAMGWYRQAPGKERELVAAITSGGDTNYADSVKGRFTISRDNAKNTVYLQMNSLKPEETAVYYCAAYLYPWYSRYYYWGQGTQVTVSS | high polyreactivity |
| QVQLVESGGGLVQAGGSLRLSCAASGSTSVKYAMGWYRQAPGKERELVAAIRKRGDSTYYADSVKGRFTISRDNAKNTVYLQMNSLKPEDTAVYYCAAQYLRGRGYWGQGTQVTVSA | low polyreactivity |
| QVQLVESGGGLVQAGGSLRLSCAASGSTFAYYTMGWYRQAPGKERELVAAISAGGGSTYYADSVKGRFTISRDNAKNTVYLQMNSLKPEDTAVYYCAVRVLIHTNTRRLDYWGQGTQVTVSS | high polyreactivity |
| QVQLVESGGALVQAGGSLRLSCAASGSIFSEYAMGWYRQAPGKERELVAAISRSGGTTYYADSVKGRFSISRDNAKNTVYLQMNSLKPEDTAVYYCAARYFRGSYPMGYWGQGTQVTVSS | high polyreactivity |
| QVQLVESGGGLVQAGGSLRLSCAASGSTFLGYAMGWYRQAPGKERELVAVIDNGGDTYYADSVKGRFTISRDNAKNTVYLQINSLKPEDTEVYYCAADLSYLGYWEYDYWGQGTQVTVSS | low polyreactivity |
| QVHLVDSAGGLVQAGGSLRLSCSASGSTFAVYAMGWYRQAPGKERELVAAISSSGDRTYYADSVKGRFTFSRDNAKNTVYLQMNILKPEDTAVYYCAVAIGYVYKTYYYWGQGTQVTVSS | high polyreactivity |
| QVQLEESGGGLVQAGGSLRLSCAASGYNFVYYAMGWYRQAPGKERELDAAITGRGGSTYYADSVKGRFTISRDNAKNTVYLQMNSLKPEDTAVYYCAKKRIGPVKQFGRDYNYWGQGTQVTVSS | high polyreactivity |
| QVQLVETGGGLVQAGGSLRLSCAASGSIFTPYAIGWYRKAPGKDRELVAAITSRGGTTYYADSVKGRFTISRDNAKNTVYLQMNSLKPEDTAVYYCAAEYYHLYYYQFDYWGQGTQVTVSS | high polyreactivity |
| QVQLVESGGGLVQAGGSLRLSCAASGFTLYRYAMAWYRQAPGKERELVAAISWSGGSTYYADSVKGRFTISRDNAKNTVYLQMNSLKPEDTAVYYCAATGYVTRSKRYDYWGQGTQVTVSS | high polyreactivity |
| QVQLVESGGGLVQAGGSLRLSCAASGFTFYRYAMGWYRQAPGKERELVAVITGRGGTTYYADSVKGRFTISRDNAKNTVYLQMNSMKPEDTAVYYCAVQTHRSLDPYDYWGQGTQVTVSS | high polyreactivity |
